Data on 60 sequences can be found in the supplement of paper PMC7877785.

± gives the uncertainty stated by the source.

This data set in a line: self-splicing fitness, log relative to wild type (ln ratio); higher = more splicing; Tetrahymena group I intron in knt gene, E. coli kanamycin selection, DiMSum; sequences stand for … in CUCUCU…GGAGGGAAAAGUUAUCAGGCAUGCACCUGGUAGCUAGUCUUUAAACCAAUAGAUUGCAUCGGUUUAAAAGGCAAGACCGUCAAAUUGCGGGAAAGGGGUCAACAGCCGUUCAGUACCAAGUCUCAGGGGAAACUUUGAGAUGGCCUUGCAAAGGGUAUGGUAAUAAGCUGACGGACAUGGUCCUAACCACGCAGCCAAGUCCUAAGUCAACAGAUCUUCUGUUGAUAUGGAUGCAGUUCACAGACUAAAUGUCGGUCGGGGAAGAUGUAUUCUUCUCAUAAGAUAUAGUCGGACCUCUCCUUAAUGGGAGCUAGCGGAUGAAGUGAUGCAACACUGGAGCCGCUGGGAACUAAUUUGUAUGCGAAAGUAUAUUGAUUAGUUUUGGAGUACUCGUGGUCG
An outline of the steps:
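DiMSum derived fitness as the error-weighted combination of fold changes across replicates, kanamycin versus no kanamycin, normalised to wild type. E. coli BL21(DE3) held the library, which randomised all eight P1ex-region intron nucleotides within the knt kanamycin-resistance gene on pET-22b(+). Six replicate transformations grew overnight at 37°C or 30°C on LB agar with or without 25 μg/mL kanamycin, also containing 100 μg/mL carbenicillin, 50 μM IPTG and 0.2% rhamnose, and pooled colonies were amplicon-sequenced on an Illumina HiSeq 2500.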

In the case of CCAAAGCAAUAUUACGCUGC, the “self-splicing fitness (ln)” value was -3.03 ± 0.17 (30 °C) and -1.8 ± 0.18 (37 °C).
In the same order, the values of UCUGAGCAAUAUUACGAAUC are -3.29 ± 0.25 and -3.03 ± 0.43.
In the same order, the values of UGUUAGCAAUAUUACGGUCA are 0.281 ± 0.096 and 0.169 ± 0.11.
On the same counts, the results for CCUUAGCAAUAUUACGGAGC are -3.54 ± 0.34 and -2.4 ± 0.25.
Take GGCGAGCAAUAUUACGAUCG: the “self-splicing fitness (ln)” value by setting is: (30 °C) -2.53 ± 0.21; (37 °C) -0.978 ± 0.21.
In the same order, the values of CAGCAGCAAUAUUACGGGGG are -1.63 ± 0.076 and -1.54 ± 0.11.
On the same counts, the results for UCGCAGCAAUAUUACGGUUC are -3.65 ± 0.43 and -1.66 ± 0.3.
With UCAUAGCAAUAUUACGCCUG, the “self-splicing fitness (ln)” value (30 °C) is -0.427 ± 0.085 and the “self-splicing fitness (ln)” value (37 °C) is -0.133 ± 0.11.
For GAAGAGCAAUAUUACGUUCU, the “self-splicing fitness (ln)” value runs as follows: (30 °C) -3.88 ± 0.29; (37 °C) -2.8 ± 0.27.
Turning to AUCAAGCAAUAUUACGACGU, the “self-splicing fitness (ln)” value (30 °C) stood at 0.145 ± 0.071 and the “self-splicing fitness (ln)” value (37 °C) was -0.14 ± 0.067.
For AUGAAGCAAUAUUACGCAAG, the “self-splicing fitness (ln)” value by setting is: (30 °C) -0.379 ± 0.085; (37 °C) -0.121 ± 0.11.
Turning to AAGCAGCAAUAUUACGAAAG, the “self-splicing fitness (ln)” value is -3.93 ± 0.23 (30 °C) and -2.29 ± 0.17 (37 °C).
In the same order, the values of GCACAGCAAUAUUACGCGAA are -0.472 ± 0.066 and 0.308 ± 0.071.
In the same order, the values of UGCAAGCAAUAUUACGGAUA are -1.68 ± 0.11 and -0.698 ± 0.12.
UUUUAGCAAUAUUACGAGCG: the “self-splicing fitness (ln)” value (30 °C) was -1.02 ± 0.11 and the “self-splicing fitness (ln)” value (37 °C) is -1.33 ± 0.1.
On the same counts, the results for AGACAGCAAUAUUACGGUAU are -2.55 ± 0.1 and -0.734 ± 0.091.
In the case of CUUGAGCAAUAUUACGCCUC, the “self-splicing fitness (ln)” value (37 °C) is -0.747 ± 0.3.
For AUAUAGCAAUAUUACGAGAC, the “self-splicing fitness (ln)” value runs as follows: (30 °C) -3.02 ± 0.39; (37 °C) -1.61 ± 0.49.
In the same order, the values of UAGUAGCAAUAUUACGCUGA are -2.25 ± 0.39 and -0.637 ± 0.11.
In the same order, the values of UUGAAGCAAUAUUACGAAGA are -0.989 ± 0.11 and -0.181 ± 0.17.
On the same counts, the results for UUAGAGCAAUAUUACGAGGA are -2.99 ± 0.34 and -0.578 ± 0.32.
UUUCAGCAAUAUUACGCGGC: the “self-splicing fitness (ln)” value is, setting by setting: (30 °C) -2.67 ± 0.25; (37 °C) -1.74 ± 0.27.
With GACCAGCAAUAUUACGCUUA, the “self-splicing fitness (ln)” value reads like this: (30 °C) -0.722 ± 0.053; (37 °C) 0.0868 ± 0.064.
For AACUAGCAAUAUUACGAGUA, the “self-splicing fitness (ln)” value (30 °C) was -0.62 ± 0.07 and the “self-splicing fitness (ln)” value (37 °C) is -0.322 ± 0.083.
For the sequence UCUUAGCAAUAUUACGUCGA, the “self-splicing fitness (ln)” value was -0.705 ± 0.13 (30 °C) and -0.434 ± 0.15 (37 °C).
Regarding UGUCAGCAAUAUUACGGCAC, the “self-splicing fitness (ln)” value (30 °C) is -2.42 ± 0.35.
With AGCCAGCAAUAUUACGAUGC, the “self-splicing fitness (ln)” value is -3.79 ± 0.47 (30 °C) and -0.986 ± 0.2 (37 °C).
As for GCGUAGCAAUAUUACGUCGG, the “self-splicing fitness (ln)” value by setting is: (30 °C) -2.69 ± 0.21; (37 °C) -3.18 ± 0.24.
In the same order, the values of UGCUAGCAAUAUUACGCAUG are -3.03 ± 0.34 and -0.445 ± 0.19.
On the same counts, the results for CUUAAGCAAUAUUACGGAGA are -2.45 ± 0.24 and -2.31 ± 0.29.
On the same counts, the results for AUAUAGCAAUAUUACGCCUU are -1.01 ± 0.12 and -0.431 ± 0.12.
Take GAGGAGCAAUAUUACGUCUA: the “self-splicing fitness (ln)” value (30 °C) was -2.04 ± 0.12 and the “self-splicing fitness (ln)” value (37 °C) is -0.687 ± 0.15.
Take ACUCAGCAAUAUUACGCGCC: the “self-splicing fitness (ln)” value is -1.17 ± 0.16 (30 °C) and -0.503 ± 0.17 (37 °C).
In the same order, the values of GAAGAGCAAUAUUACGGGGG are -3.04 ± 0.2 and -3.06 ± 0.29.
In the same order, the values of GCUUAGCAAUAUUACGUGCU are -2.78 ± 0.19 and -1.41 ± 0.18.
On to GCCCAGCAAUAUUACGGAGU, for which the “self-splicing fitness (ln)” value reads like this: (30 °C) -2.57 ± 0.084; (37 °C) -0.683 ± 0.085.
On the same counts, the results for GUUCAGCAAUAUUACGGGGU are -3.36 ± 0.17 and -1.73 ± 0.16.
In the same order, the values of AUGCAGCAAUAUUACGCACA are -0.62 ± 0.11 and 0.467 ± 0.13.
For UCUUAGCAAUAUUACGGUCU, the “self-splicing fitness (ln)” value runs as follows: (30 °C) -4.42 ± 0.42; (37 °C) -2.67 ± 0.32.
In the same order, the values of CGGGAGCAAUAUUACGACGC are -4.16 ± 0.46 and -3.31 ± 0.3.
As to UUUAAGCAAUAUUACGUAAG, the “self-splicing fitness (ln)” value is -0.0425 ± 0.074 (30 °C) and 0.296 ± 0.094 (37 °C).
GGCAAGCAAUAUUACGGUGA: the “self-splicing fitness (ln)” value is -0.759 ± 0.071 (30 °C) and -0.336 ± 0.077 (37 °C).
In the same order, the values of UUUAAGCAAUAUUACGGGUU are -2.83 ± 0.3 and -1.67 ± 0.22.
In the same order, the values of AUUGAGCAAUAUUACGGUUA are -3.06 ± 0.29 and -2.57 ± 0.22.
In the same order, the values of GGUCAGCAAUAUUACGGGAG are -3.38 ± 0.22 and -1.45 ± 0.12.
In the case of AUUUAGCAAUAUUACGUUCC, the “self-splicing fitness (ln)” value by setting is: (30 °C) -1.54 ± 0.26; (37 °C) -1.23 ± 0.49.
In the same order, the values of GAAAAGCAAUAUUACGCCGG are -1.34 ± 0.18 and -1.2 ± 0.17.
On the same counts, the results for AAAAAGCAAUAUUACGCCUA are -0.792 ± 0.12 and -0.855 ± 0.094.
In the same order, the values of AAACAGCAAUAUUACGGUUA are -0.306 ± 0.056 and -0.167 ± 0.066.
In the case of CUCCAGCAAUAUUACGCAUC, the “self-splicing fitness (ln)” value by setting is: (30 °C) -4.12 ± 0.42; (37 °C) -2.4 ± 0.37.
In the same order, the values of UCUCAGCAAUAUUACGCGGC are -4.17 ± 0.42 and -1.86 ± 0.27.
On to GCUCAGCAAUAUUACGGGGA, for which the “self-splicing fitness (ln)” value (30 °C) is -0.491 ± 0.054 and the “self-splicing fitness (ln)” value (37 °C) was determined as 0.325 ± 0.075.
In the case of ACGCAGCAAUAUUACGUUUG, the “self-splicing fitness (ln)” value (30 °C) is -3.65 ± 0.2 and the “self-splicing fitness (ln)” value (37 °C) was -2.69 ± 0.2.
As to UACUAGCAAUAUUACGUUGU, the “self-splicing fitness (ln)” value is, setting by setting: (30 °C) -2.48 ± 0.17; (37 °C) -2.21 ± 0.17.
On the same counts, the results for UGUAAGCAAUAUUACGUGUC are -3.77 ± 0.2 and -2.01 ± 0.17.
In the same order, the values of GCCGAGCAAUAUUACGUUAC are -3.09 ± 0.21 and -2.3 ± 0.19.
On the same counts, the results for AUACAGCAAUAUUACGGCGA are -1.08 ± 0.096 and -0.781 ± 0.11.
Regarding CUUUAGCAAUAUUACGUGAG, the “self-splicing fitness (ln)” value is, setting by setting: (30 °C) -1.07 ± 0.11; (37 °C) -0.581 ± 0.14.
For the sequence CUGGAGCAAUAUUACGAGAG, the “self-splicing fitness (ln)” value was -3.54 ± 0.36 (30 °C) and -3.53 ± 0.33 (37 °C).
In the same order, the values of AUAGAGCAAUAUUACGGUAU are -0.341 ± 0.075 and -0.0895 ± 0.11.
